Measurements taken from patent publication US20110130457A1, “Wax-Based Emulsion for the Treatment of Dry Eye Conditions” (UNIVERSITY OF LOUISVILLE RESEARCH FOUNDATION, INC., priority 2008, published 2011).

What was measured:
[1] = Evaporation rates measured in vitro (gravimetric); type: physicochemical; conditions: for Influence on the rate of evaporation: concentrations of 50 to 100 mg/mL, at 25 or 34° C.
Protocol: Samples (0.750 mL) for evaporation rate measurements were placed into a plastic container 0.8 cm deep and 1.500 cm inside diameter. Temperature and relative humidity were recorded at the start and end of each experiment. Samples were weighed every minute for 10 minutes using a Mettler-Toledo AT261 analytical balance (Columbus, Ohio). The balance was calibrated and certified by a Mettler technician prior to use. The weights of as many as 7 samples were measured sequentially, i.e., after measuring the weights of sample 1 for ten minutes, the weights of sample 2 were measured for ten minutes, followed by the next sample. The weights of four 10 minute weighing sequences were plotted versus time and the rate of evaporation was calculated from the slope of the data in the plots that were fitted using least squares linear regression analysis. The rate of evaporation at 34° C. was measured using four, 3-minute weighing sequences instead of ten.
The rate of evaporation with 20 standard cubic feet per minute (SCFM) of dry air flowing over the sample at 24° C. was measured. Air was completely dried using a Keaser desiccant dry, model KLDW-10S (Columbus, Ohio) attached to a Purimetrics Compressor, model 750-2 (Edina, Minn.) and a 80 gallon air receiver tank. Complete removal of water vapor from the air was confirmed using an infrared spectrometer. The sample was placed under a flow of dry air for 1 minute and removed from the dry air for two minutes and weighed in a Mettler-Toledo analytical balance. This cycle was repeated ten times. The rate of evaporation in dry air was calculated from the total rate of evaporation minus the contribution of the evaporation in the room air. Evaporation rate was expressed as μm/min, the rate of thickness lost at the surface per minute. Changes in the thickness of the tear film (˜5 μm) due to evaporation can be estimated readily by expressing the evaporation rate in μm/min.

β-lactoglobulin = target: T1, β-lactoglobulin (Bos taurus, UniProt P02754); test: Wax-lactoglobulin binding by intrinsic tryptophan fluorescence intensity and anisotropy
T1 sequence (P02754 17-178): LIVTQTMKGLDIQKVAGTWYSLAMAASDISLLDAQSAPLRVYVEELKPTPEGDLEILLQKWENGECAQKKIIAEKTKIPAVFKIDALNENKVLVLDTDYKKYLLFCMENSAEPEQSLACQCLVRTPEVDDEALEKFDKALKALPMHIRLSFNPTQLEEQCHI
Text: Changes in protein concentration alone are unlikely to affect the rate of evaporation of tears. […] (See Pandit J. C., Nagyova B., Bron A. J., et al, Physical properties of stimulated and unstimulated tears. Exp Eye Res. 1999; 68:247-253.) In this embodiment of the present invention, wax interacted with lactoglobulin. Wax-lactoglobulin binding was quantified by measuring changes in the intrinsic fluorescence intensity of tryptophan. Tryptophan fluorescence is sensitive to local changes in electrostatic fields. Therefore, variations in the local environment/polarity of tryptophan leads to changes in its fluorescence properties as described by Vivian and Callis. Vivian J. T., Callis P. R., Mechanisms of tryptophan fluorescence shifts in proteins, Biophys. J. 2001; 80:2093-2109.) Substrate binding and protein structural changes are commonly measured by observing changes in tryptophan fluorescence intensity, wavelength maximum, band shape, anisotropy, fluorescence lifetimes, and energy transfer.
A wax emulsion that is stable for at least 4 weeks was prepared as described previously by the inventors. […] A quantified amount of wax (0.156 to 1.25 μL/mL) was mixed with 1 mg/mL lactoglobulin in phosphate buffered saline and equilibrated for 12 hours at 34° C. under an atmosphere of argon. […] Emission spectra were measured from 300 to 400 nm with an excitation wavelength of 270 nm. […]

[2] = 50 mg/mL, 24.8° C., relative humidity 40.6%
[3] = 100 mg/mL, 24.8° C., relative humidity 40.6%

| Molecule | Rate of Evaporation [1, 2] [μm/min] | Rate of Evaporation [1, 3] [μm/min] | Rate of Evaporation ([1]; 100 mg/mL, 34° C.) [μm/min] | Influence on the rate of evaporation [1] | Fluorescence intensity of the tryptophan residues in lactoglobulin (β-lactoglobulin; as little as 20 nmoles (~0.1 μg) wax added to 1 mg β-lactoglobulin in 1 ml phosphate buffered saline) | Tryptophan anisotropy of lactoglobulin (β-lactoglobulin; with the addition of wax, n=6, 0.138±0.009 with no wax, p=0.04, SEM) |
| --- | --- | --- | --- | --- | --- | --- |
| β-Lactoglobulin: model tear protein, used as a model for lipocalin | 3.08 | 3.12 | 9.1 | did not significantly influence the rate of evaporation | – | – |
| Lysozyme | 3.0 | 3.0 | – | did not significantly influence the rate of evaporation | – | – |
| CCCCCCCC/C=C\CCCCCCCC(=O)OCCCCCCCCCCCCCCCC [palmityloleate wax, palmityloleate] | – | – | – | – | caused a decrease in the fluorescence intensity | 0.115±0.004 |
| Mucin | 2.9 | 3.0 | – | did not significantly influence the rate of evaporation | – | – |
